From patent US20100254896A1

The substances below were run against αvβ3 receptors on M21 human melanoma cells (human) (UniProt P06756) (assay: cell-based or functional assay).
UniProt P06756, sequence (P06756 31-1048, chain 1 of 2): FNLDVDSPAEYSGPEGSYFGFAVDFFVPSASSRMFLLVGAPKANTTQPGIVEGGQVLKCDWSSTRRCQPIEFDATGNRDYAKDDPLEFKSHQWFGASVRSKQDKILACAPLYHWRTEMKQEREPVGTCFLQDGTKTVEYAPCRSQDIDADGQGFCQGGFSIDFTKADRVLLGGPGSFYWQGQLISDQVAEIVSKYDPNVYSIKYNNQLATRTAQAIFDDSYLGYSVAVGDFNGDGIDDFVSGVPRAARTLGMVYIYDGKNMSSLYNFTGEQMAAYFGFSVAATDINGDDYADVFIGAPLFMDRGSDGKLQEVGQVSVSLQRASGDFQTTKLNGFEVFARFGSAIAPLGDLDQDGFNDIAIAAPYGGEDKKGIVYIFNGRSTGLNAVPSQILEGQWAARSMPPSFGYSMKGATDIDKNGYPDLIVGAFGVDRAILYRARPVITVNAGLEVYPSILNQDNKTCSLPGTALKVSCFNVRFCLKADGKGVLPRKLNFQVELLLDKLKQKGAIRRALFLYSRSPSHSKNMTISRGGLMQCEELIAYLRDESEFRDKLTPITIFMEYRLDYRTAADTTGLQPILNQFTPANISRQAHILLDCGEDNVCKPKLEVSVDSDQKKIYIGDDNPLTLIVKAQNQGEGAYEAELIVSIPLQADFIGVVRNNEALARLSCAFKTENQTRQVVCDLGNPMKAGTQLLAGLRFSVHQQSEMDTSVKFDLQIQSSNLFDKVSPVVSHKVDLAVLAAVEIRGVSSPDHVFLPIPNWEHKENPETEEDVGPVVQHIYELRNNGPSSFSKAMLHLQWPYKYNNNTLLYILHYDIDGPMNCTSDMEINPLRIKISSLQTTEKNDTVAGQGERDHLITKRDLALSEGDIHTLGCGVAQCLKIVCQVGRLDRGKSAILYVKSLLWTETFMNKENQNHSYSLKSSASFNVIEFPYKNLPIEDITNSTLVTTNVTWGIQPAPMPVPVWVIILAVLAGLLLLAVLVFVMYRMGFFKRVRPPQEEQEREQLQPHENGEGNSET
UniProt P06756, sequence (P05106 27-788, chain 2 of 2, further chain): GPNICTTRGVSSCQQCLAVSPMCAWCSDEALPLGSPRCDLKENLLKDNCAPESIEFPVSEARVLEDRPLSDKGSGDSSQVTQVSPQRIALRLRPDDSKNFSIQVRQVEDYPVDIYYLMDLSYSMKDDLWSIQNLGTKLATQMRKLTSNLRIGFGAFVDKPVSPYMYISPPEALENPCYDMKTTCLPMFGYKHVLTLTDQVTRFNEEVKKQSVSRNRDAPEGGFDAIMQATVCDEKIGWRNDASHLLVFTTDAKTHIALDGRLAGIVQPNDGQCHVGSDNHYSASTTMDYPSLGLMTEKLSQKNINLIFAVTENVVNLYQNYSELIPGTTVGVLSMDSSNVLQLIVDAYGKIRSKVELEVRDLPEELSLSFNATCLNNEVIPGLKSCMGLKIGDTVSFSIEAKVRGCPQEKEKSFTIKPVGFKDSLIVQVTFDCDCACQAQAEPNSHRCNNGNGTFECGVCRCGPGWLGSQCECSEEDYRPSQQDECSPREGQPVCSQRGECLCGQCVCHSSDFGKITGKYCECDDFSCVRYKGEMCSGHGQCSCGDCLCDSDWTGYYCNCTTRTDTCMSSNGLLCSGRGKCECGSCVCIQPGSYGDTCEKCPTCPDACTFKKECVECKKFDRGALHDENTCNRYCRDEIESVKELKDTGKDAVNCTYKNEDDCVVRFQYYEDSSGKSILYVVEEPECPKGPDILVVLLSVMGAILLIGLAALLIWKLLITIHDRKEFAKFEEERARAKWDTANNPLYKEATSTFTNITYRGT

Going from “RGD (targeted null AAVP, Example 2) (peptide)” to “RGDTNF-α (targeted TNF-α expressing AAVP) (peptide)”, the phage internalization assay, pfu/µl rises from 14000 pfu/µl to 21500 pfu/µl.

Compared with fd (non-targeted null AAVP), “fdTNF-α (non-targeted TNF-α expressing AAVP)” is higher in phage internalization assay, pfu/µl: 300 pfu/µl for the first, 600 pfu/µl for the second.
